# Target: the molecule itself
# Experiment: cryo-EM structure
protein,measurement,value
"SARS-CoV S ectodomain, uncleaved, trimerization motif and His tag removed by thrombin (domain or fragment) not shown",stoichiometry N,3
